Results taken from patent publication US20250277199, “NOVEL CRISPR-CAS NUCLEASES FROM METAGENOMES” (Brain Biotech AG, published 2025).

Molecular target: T1, BMC04 (uncultured bacterium (metagenome))
T1 chain: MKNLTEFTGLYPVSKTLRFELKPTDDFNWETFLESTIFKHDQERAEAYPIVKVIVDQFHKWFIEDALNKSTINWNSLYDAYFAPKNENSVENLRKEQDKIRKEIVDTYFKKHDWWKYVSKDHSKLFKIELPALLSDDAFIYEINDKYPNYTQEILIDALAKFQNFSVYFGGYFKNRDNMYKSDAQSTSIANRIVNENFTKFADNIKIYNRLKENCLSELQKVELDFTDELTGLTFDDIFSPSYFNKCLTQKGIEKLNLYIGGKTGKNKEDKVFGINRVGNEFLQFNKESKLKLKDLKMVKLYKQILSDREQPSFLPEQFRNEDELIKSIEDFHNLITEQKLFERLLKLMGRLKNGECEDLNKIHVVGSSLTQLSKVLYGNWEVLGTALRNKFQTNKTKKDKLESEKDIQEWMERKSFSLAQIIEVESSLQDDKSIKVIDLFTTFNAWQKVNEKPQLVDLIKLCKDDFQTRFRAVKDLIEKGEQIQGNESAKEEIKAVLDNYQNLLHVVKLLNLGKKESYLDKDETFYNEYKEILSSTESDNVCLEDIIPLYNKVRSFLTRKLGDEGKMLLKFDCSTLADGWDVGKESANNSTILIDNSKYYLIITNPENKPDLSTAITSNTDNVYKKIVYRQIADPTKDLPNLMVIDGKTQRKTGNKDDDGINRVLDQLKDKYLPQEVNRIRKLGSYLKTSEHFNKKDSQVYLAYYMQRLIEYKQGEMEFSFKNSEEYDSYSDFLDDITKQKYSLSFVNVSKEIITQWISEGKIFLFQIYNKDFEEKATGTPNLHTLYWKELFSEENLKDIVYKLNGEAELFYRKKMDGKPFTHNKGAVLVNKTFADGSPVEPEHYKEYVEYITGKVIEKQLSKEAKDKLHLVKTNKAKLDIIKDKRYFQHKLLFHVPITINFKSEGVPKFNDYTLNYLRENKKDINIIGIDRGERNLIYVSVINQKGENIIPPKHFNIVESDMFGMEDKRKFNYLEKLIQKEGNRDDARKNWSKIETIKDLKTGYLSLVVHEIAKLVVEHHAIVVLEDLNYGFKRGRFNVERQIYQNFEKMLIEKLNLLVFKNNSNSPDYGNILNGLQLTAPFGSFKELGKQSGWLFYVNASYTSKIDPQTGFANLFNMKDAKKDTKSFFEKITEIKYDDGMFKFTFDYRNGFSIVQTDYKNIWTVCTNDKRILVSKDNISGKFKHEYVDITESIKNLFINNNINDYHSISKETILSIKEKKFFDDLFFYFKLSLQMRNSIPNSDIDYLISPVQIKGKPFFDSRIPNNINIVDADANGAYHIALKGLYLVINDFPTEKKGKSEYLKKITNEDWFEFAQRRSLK
Experiment: cell_activity; PAM not stated; E. coli depletion, 30 C
In short: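 E. coli carrying arabinose-induced (0.2%) BMC nuclease, grown at 30° C., made electrocompetent and electroporated with 50-100 ng plasmid carrying gRNA against malQ. Transformants plated on selective M9-glucose agar with kanamycin/ampicillin (± nourseothricin), and growth scored after 48 h at 30° C.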

B1: malQ gRNA (BMC stem-loop + 24 nt spacer) ; malQ protospacer (ssRNA ; dsDNA)
RNA: GAUUUCUACUAUUGUAGAUGUGGCGGUACGUUGAUGCAUCGCG
DNA 1: GTGGCGGTACGTTGATGCATCGCG
DNA 2: CGCGATGCATCAACGTACCGCCAC
- activity: > 99.9 % colony reduction
